The values below come from US20220226375A1 (CRISPR THERAPEUTICS, published 2022).

The target of test [1] is CD33 on the surface of human cells (AML cell lines THP-1, KG-1, MV4-11; activated primary human T cells) (human, UniProt P20138 18-364). The experiment in a line: cell-based or functional assay.
In test [2] the target is T1, CD33 protein (AcroBiosystems) conjugated to biotin (UniProt P20138 18-259, biotinylated (site not stated)).
T1 construct: Soluble bought reagent used at 2 ug/uL with streptavidin-APC to label cell-surface anti-CD33 CAR; also called biotinylated CD33 protein, CD3-H82E7
T1 sequence (P20138 18-259 limits assumed): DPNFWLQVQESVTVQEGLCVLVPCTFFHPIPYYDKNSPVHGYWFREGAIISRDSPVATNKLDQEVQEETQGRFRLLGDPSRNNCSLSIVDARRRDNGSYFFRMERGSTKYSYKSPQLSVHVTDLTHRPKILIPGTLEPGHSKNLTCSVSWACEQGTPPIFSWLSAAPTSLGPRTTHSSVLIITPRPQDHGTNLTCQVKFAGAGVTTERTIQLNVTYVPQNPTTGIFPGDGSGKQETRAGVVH
Kind of test: flow cytometry; cell-surface CAR on edited T cells labelled with biotinylated CD33 protein and streptavidin-APC. The method, then:
About one (1) week post electroporation, gene-edited T cells were analyzed by flow cytometry to assess the percentage of the cell population that expressed an anti-CD33 CAR. Labeling of cell-surface anti-CD33 CAR was done with a combination of a CD33 protein (AcroBiosystems) conjugated to biotin and a streptavidin-APC secondary reagent (FIG. 1A, FIG. 1B and FIG. 1C). […] In contrast, certain T cells generated with a TRAC and B2M gene disruption and a CAR construct did result in a high percentage of the population that expressed an anti-CD33 CAR. […] However, not all T cells prepared with a CAR construct had CAR expression. […] Indeed, this outcome was not altered by switching the CAR co-stimulatory domain (e.g., CTX-964 compared to CTX-964b).
For orientation: Flow cytometry measures light scatter and fluorescence of single cells or particles in a stream.

Chain of CD33 on the surface of human cells (AML cell lines THP-1, KG-1, MV4-11; activated primary human T cells) (P20138 18-364): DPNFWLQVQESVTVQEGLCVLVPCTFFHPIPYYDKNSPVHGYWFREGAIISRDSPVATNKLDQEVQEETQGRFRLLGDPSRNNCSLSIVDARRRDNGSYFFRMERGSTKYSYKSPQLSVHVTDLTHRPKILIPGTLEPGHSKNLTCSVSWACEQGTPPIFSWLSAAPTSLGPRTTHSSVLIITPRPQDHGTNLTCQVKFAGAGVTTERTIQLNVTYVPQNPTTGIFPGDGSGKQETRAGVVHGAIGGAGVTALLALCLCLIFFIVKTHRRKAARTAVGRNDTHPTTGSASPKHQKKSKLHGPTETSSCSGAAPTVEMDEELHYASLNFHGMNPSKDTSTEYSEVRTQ

B1: CTX-982b CAR (anti-CD33 CAR, Antibody C scFv VH-VL, 41BB co-stimulatory domain, CD3z) (other)
chain: EVQLVQSGAEVKKPGSSVKVSCKASGYTITDSNIHWVRQAPGQSLEWIGYIYPYNGGTDYNQKFKNRATLTVDNPTNTAYMELSSLRSEDTAFYYCVNGNPWLAYWGQGTLVTVSSGGGGSGGGGSGGGGSDIQLTQSPSTLSASVGDRVTITCRASESLDNYGIRFLTWFQQKPGKAPKLLMYAASNQGSGVPSRFSGSGSGTEFTLTISSLQPDDFATYYCQQTKEVPWSFGQGTKVEVKSAAAFVPVFLPAKPTTTPAPRPPTPAPTIASQPLSLRPEACRPAAGGAVHTRGLDFACDIYIWAPLAGTCGVLLLSLVITLYCNHRNRKRGRKKLLYIFKQPFMRPVQTTQEEDGCSCRFPEEEEGGCELRVKFSRSADAPAYQQGQNQLYNELNLGRREEYDVLDKRRGRDPEMGGKPRRKNPQEGLYNELQKDKMAEAYSEIGMKGERRRGKGHDGLYQGLSTATKDTYDALHMQALPPR
As to B1, in test [1], the “percent cell lysis of CD33 KO MV4-11 cells (CD33-deficient comparison) at 1:1 ratio” value is greater than 60%.

B2: CTX-982 CAR (anti-CD33 CAR, Antibody C scFv VH-VL, CD28 co-stimulatory domain, CD3z) (other)
chain: EVQLVQSGAEVKKPGSSVKVSCKASGYTITDSNIHWVRQAPGQSLEWIGYIYPYNGGTDYNQKFKNRATLTVDNPTNTAYMELSSLRSEDTAFYYCVNGNPWLAYWGQGTLVTVSSGGGGSGGGGSGGGGSDIQLTQSPSTLSASVGDRVTITCRASESLDNYGIRFLTWFQQKPGKAPKLLMYAASNQGSGVPSRFSGSGSGTEFTLTISSLQPDDFATYYCQQTKEVPWSFGQGTKVEVKSAAAFVPVFLPAKPTTTPAPRPPTPAPTIASQPLSLRPEACRPAAGGAVHTRGLDFACDIYIWAPLAGTCGVLLLSLVITLYCNHRNRSKRSRLLHSDYMNMTPRRPGPTRKHYQPYAPPRDFAAYRSRVKFSRSADAPAYQQGQNQLYNELNLGRREEYDVLDKRRGRDPEMGGKPRRKNPQEGLYNELQKDKMAEAYSEIGMKGERRRGKGHDGLYQGLSTATKDTYDALHMQALPPR
Consider B2, for which, in test [2], the binding result was “binds”.

B3: CTX-969 CAR (anti-CD33 CAR, Antibody B scFv VH-VL, CD28 co-stimulatory domain, CD3z) (other)
chain: QVQLVQSGAEVKKPGASVKVSCKASGYTFTNYDINWVRQAPGQGLEWIGWIYPGDGSTKYNEKFKAKATLTADTSTSTAYMELRSLRSDDTAVYYCASGYEDAMDYWGQGTTVTVSSGGGGGSGGGGSGGGGSDIQMTQSPSSLSASVGDRVTINCKASQDINSYLSWFQQKPGKAPKTLIYRANRLVDGVPSRFSGSGSGQDYTLTISSLQPEDFATYYCLQYDEFPLTFGGGTKVEIKSAAAFVPVFLPAKPTTTPAPRPPTPAPTIASQPLSLRPEACRPAAGGAVHTRGLDFACDIYIWAPLAGTCGVLLLSLVITLYCNHRNRSKRSRLLHSDYMNMTPRRPGPTRKHYQPYAPPRDFAAYRSRVKFSRSADAPAYQQGQNQLYNELNLGRREEYDVLDKRRGRDPEMGGKPRRKNPQEGLYNELQKDKMAEAYSEIGMKGERRRGKGHDGLYQGLSTATKDTYDALHMQALPPR
With B3, the binding result in test [2] is reported as “binds”.
